The source of these data is PMC3310397.

Assay [1] deals with G-CSF receptor on NFS-60 cells (mouse (endogenous in NFS-60)) (UniProt P40223). Description: radioligand binding.
Assay [2] deals with Tf receptor on Caco-2 cells (human (endogenous in Caco-2)) (UniProt P02786). Description: radioligand binding.
Sequence of UniProt P02786 (P02786 whole entry): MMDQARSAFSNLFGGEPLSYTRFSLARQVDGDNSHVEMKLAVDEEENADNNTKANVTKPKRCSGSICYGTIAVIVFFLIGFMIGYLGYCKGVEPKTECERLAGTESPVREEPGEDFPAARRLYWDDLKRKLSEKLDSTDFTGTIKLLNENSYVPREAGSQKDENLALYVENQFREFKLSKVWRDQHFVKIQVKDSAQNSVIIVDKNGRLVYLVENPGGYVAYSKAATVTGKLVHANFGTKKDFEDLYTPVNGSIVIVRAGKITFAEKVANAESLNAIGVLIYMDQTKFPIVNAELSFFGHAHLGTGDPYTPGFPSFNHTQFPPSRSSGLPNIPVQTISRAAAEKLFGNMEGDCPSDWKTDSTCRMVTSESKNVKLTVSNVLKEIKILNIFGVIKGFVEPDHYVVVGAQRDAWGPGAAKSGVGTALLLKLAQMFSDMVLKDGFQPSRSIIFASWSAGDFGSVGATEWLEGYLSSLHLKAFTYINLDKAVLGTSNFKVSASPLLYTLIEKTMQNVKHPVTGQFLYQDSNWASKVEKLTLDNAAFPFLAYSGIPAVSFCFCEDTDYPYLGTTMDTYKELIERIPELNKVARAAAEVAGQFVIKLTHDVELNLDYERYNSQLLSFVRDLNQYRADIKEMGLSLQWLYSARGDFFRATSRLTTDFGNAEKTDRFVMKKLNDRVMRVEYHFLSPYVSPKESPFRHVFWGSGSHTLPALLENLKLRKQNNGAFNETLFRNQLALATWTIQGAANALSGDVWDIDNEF

Sequence of UniProt P40223 (P40223 26-837): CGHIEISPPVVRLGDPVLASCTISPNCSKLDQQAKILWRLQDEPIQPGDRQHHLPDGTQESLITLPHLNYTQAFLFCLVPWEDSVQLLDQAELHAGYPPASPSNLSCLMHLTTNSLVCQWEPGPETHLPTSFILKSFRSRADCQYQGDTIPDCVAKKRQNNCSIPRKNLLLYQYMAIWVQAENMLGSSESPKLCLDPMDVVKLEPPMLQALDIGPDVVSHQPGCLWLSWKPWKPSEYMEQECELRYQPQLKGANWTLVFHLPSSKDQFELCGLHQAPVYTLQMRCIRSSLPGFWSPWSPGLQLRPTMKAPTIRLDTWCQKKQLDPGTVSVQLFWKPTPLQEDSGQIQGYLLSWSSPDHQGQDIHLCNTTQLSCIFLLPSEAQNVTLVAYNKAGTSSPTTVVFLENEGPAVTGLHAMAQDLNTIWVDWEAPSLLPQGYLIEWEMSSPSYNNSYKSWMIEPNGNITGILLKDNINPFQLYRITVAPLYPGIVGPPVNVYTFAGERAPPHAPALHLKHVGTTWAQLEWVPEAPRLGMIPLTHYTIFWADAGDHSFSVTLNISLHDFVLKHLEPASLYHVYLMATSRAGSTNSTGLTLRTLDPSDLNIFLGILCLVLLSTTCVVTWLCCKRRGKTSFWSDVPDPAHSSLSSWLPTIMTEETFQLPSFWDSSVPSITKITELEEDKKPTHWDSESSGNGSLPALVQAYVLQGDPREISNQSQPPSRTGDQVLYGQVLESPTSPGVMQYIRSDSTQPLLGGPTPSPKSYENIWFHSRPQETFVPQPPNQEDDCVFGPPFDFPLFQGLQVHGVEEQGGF

For “G-CSF-LE-Tf fusion protein (dipeptide linker)”, the results for the IC50 in assay [1] and in assay [2] were 38 nM and 7.5 nM, respectively.

As for “GH-LE-Tf fusion protein (dipeptide linker)”, in assay [2], the IC50 (usually the concentration that gives 50% inhibition) is 21.2 nM.

“recombinant human G-CSF, aglycosylated (Neupogen) (from UniProt P09919-2 31-204) (ligand)”: the IC50 in assay [1] is 113 nM.
